The values below are quoted from earlier work in article PMC4440832.

One data set deals with netrin (UniProt O95631).
In data set [1] the target is BMP2 (Homo sapiens) (UniProt P12643). The data set can be described thus: radioligand binding.
Data set [2] has as its target BMP4 (Homo sapiens) (UniProt P12644). The data set can be described thus: SPR. (In general: Surface plasmon resonance follows binding to a sensor surface in real time, without labels.)
Another data set concerns the target BMP6 (Homo sapiens) (UniProt P22004). The experiment in a line: SPR.
Data set [3] deals with BMP2 (Homo sapiens) (UniProt P12643). The experiment in a line: SPR.
Another data set addresses BMP5 (Homo sapiens) (UniProt P22003). The experiment in a line: SPR.
For the next data set, the target named is BMP7 (Homo sapiens) (UniProt P18075). The data set can be described thus: SPR.
In data set [4] the target is BMP4 (Homo sapiens) (UniProt P12644). The data set can be described thus: radioligand binding.
Chain of BMP4 (Homo sapiens) (P12644 293-408): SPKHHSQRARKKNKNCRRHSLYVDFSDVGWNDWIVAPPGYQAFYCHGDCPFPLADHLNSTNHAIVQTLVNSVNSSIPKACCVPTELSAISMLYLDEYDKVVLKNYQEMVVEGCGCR

Chain of BMP2 (Homo sapiens) (P12643 283-396): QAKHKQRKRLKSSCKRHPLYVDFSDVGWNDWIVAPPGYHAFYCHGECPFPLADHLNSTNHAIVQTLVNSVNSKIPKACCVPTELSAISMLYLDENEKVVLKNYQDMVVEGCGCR
Chain of BMP6 (Homo sapiens) (P22004 375-513): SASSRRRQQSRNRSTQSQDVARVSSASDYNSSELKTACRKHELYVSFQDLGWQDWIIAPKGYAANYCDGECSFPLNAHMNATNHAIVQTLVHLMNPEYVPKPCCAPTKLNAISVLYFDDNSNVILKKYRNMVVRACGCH
Chain of RGMa.Fc ECD (Q6PCX7 48-427): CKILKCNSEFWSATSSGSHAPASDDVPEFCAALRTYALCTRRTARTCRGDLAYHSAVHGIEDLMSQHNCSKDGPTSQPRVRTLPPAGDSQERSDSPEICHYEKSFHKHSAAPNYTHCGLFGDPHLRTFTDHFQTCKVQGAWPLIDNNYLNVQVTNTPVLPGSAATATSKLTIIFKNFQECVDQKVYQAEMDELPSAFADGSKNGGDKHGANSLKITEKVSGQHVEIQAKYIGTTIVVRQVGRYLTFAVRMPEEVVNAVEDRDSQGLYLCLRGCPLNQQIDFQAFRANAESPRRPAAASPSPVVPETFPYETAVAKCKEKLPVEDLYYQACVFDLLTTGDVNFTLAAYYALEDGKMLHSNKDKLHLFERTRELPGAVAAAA
Chain of HJV (Q6ZVN8 36-400): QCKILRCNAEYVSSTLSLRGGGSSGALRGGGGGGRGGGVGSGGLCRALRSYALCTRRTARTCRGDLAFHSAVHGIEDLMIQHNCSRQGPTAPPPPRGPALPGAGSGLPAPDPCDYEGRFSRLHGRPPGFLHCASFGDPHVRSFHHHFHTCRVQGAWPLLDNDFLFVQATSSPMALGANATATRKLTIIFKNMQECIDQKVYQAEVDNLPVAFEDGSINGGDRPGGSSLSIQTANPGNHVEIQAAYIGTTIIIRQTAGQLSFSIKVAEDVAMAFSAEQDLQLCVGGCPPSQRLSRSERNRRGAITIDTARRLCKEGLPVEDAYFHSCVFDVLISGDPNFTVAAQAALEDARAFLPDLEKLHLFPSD
Chain of RGMb (Q6NW40 46-413): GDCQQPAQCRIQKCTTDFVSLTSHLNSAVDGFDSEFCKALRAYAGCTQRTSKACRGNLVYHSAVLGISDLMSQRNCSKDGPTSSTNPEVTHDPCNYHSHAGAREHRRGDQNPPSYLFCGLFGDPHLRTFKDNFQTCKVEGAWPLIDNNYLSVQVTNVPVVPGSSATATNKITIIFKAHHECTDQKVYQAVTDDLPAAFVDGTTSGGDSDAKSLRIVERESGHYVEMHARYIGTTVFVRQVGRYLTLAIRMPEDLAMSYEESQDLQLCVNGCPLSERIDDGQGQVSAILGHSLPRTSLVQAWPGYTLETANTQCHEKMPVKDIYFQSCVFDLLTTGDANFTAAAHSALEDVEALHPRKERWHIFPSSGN
Chain of RGMa (Q96B86 48-424): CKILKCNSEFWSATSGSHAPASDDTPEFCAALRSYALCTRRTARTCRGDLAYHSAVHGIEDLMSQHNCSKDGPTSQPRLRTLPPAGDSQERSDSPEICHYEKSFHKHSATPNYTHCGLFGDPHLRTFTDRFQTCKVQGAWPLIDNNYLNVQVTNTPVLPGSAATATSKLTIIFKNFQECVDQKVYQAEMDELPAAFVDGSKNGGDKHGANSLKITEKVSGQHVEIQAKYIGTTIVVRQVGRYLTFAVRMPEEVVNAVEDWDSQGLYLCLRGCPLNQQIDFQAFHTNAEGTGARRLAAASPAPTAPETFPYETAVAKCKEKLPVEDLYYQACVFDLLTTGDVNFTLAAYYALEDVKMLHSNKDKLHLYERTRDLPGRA
Chain of BMP7 (Homo sapiens) (P18075 293-431): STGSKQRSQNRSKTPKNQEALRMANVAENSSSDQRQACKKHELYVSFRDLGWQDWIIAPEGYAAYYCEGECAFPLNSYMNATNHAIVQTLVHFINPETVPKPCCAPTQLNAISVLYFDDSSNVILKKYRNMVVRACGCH
Chain of RGMb.Fc ECD (Q7TQ33 49-415): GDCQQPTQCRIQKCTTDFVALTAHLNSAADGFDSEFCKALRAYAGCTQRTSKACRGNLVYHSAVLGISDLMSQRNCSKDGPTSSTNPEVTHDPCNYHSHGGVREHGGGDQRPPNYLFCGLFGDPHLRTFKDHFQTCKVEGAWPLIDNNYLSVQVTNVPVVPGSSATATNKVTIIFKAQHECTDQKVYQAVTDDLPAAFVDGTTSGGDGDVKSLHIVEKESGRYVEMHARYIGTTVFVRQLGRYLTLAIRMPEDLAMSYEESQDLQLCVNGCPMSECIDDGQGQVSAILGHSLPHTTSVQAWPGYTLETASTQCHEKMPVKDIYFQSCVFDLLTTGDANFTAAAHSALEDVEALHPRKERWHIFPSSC
Chain of neogenin (Q92859 34-1105): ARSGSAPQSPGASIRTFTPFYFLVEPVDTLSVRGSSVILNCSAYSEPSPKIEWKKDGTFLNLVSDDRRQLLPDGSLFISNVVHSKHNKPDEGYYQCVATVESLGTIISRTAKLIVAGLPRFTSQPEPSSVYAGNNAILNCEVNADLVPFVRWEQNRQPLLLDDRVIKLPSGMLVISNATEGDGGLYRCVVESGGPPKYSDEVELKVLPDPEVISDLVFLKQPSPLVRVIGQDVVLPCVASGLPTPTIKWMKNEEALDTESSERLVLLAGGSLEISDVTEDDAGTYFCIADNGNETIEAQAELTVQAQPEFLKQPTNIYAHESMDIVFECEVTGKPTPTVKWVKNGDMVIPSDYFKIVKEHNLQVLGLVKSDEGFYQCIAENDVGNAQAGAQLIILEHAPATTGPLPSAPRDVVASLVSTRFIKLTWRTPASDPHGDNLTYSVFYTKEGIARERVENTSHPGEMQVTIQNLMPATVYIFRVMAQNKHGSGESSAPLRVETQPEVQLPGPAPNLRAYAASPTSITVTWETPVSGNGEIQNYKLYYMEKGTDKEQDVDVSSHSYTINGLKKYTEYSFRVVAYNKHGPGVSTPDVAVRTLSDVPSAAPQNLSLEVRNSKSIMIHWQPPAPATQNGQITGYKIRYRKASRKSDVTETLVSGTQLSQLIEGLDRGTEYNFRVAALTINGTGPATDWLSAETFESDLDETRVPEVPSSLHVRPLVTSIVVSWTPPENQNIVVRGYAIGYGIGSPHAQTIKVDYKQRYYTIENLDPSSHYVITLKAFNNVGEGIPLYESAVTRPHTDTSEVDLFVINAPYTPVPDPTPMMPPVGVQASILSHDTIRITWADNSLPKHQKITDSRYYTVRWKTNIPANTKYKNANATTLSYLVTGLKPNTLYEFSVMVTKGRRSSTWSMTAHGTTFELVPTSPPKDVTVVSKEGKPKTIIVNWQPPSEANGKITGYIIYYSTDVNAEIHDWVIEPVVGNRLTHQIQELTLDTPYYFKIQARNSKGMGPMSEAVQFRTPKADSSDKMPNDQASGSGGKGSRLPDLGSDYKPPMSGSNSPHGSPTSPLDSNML
Chain of BMP5 (Homo sapiens) (P22003 317-454): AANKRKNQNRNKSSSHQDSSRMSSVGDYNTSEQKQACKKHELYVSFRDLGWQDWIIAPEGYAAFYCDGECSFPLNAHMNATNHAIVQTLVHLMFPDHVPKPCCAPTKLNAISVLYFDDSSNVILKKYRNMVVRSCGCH

As to neogenin (from UniProt Q92859), the Kd with netrin was 2 nM.

In the case of RGMb.Fc ECD (from UniProt Q7TQ33), the Kd with BMP2 (Homo sapiens) [1] is 1.5 nM.

In the case of RGMb (from UniProt Q6NW40), the Kd with BMP4 (Homo sapiens) [2] is 2.6 nM; with BMP6 (Homo sapiens), 28 nM; with BMP2 (Homo sapiens) [3], 5.5 nM.

As to HJV (from UniProt Q6ZVN8), the dissociation constant (Kd) in the data set with BMP5 (Homo sapiens) was 17 nM; with BMP7 (Homo sapiens), 20 nM; with BMP6 (Homo sapiens), 8.1 nM.

For RGMa (from UniProt Q96B86), the Kd with BMP6 (Homo sapiens) is 55 nM; with BMP2 (Homo sapiens) [3], 22 nM.

In the case of RGMa.Fc ECD (from UniProt Q6PCX7), the Kd was 1.4 nM with BMP4 (Homo sapiens) [4], 2.4 nM in the data set with BMP2 (Homo sapiens) [1] and 2.46 nM with BMP2 (Homo sapiens) [3].

In general, Kd refers to the equilibrium constant for the complex coming apart.
